# Results from patent US20230212237.
# B1: FLAG-TSC1 and FLAG-TSC2 (TSC complex) (protein)
# chain 1: MAQQANVGELLAMLDSPMLGVRDDVTAVFKENLNSDRGPMLVNTLVDYYLETSSQPALHILTTLQEPHDKHLLDRINEYVGKAATRLSILSLLGHVIRLQPSWKHKLSQAPLLPSLLKCLKMDTDVVVLTTGVLVLITMLPMIPQSGKQHLLDFFDIFGRLSSWCLKKPGHVAEVYLVHLHASVYALFHRLYGMYPCNFVSFLRSHYSMKENLETFEEVVKPMMEHVRIHPELVTGSKDHELDPRRWKRLETHDVVIECAKISLDPTEASYEDGYSVSHQISARFPHRSADVTTSPYADTQNSYGCATSTPYSTSRLMLLNMPGQLPQTLSSPSTRLITEPPQATLWSPSMVCGMTTPPTSPGNVPPDLSHPYSKVFGTTAGGKGTPLGTPATSPPPAPLCHSDDYVHISLPQATVTPPRKEERMDSARPCLHRQHHLLNDRGSEEPPGSKGSVTLSDLPGFLGDLASEEDSIEKDKEEAAISRELSEITTAEAEPVVPRGGFDSPFYRDSLPGSQRKTHSAASSSQGASVNPEPLHSSLDKLGPDTPKQAFTPIDLPCGSADESPAGDRECQTSLETSIFTPSPCKIPPPTRVGFGSGQPPPYDHLFEVALPKTAHHFVIRKTEELLKKAKGNTEEDGVPSTSPMEVLDRLIQQGADAHSKELNKLPLPSKSVDWTHFGGSPPSDEIRTLRDQLLLLHNQLLYERFKRQQHALRNRRLLRKVIKAAALEEHNAAMKDQLKLQEKDIQMWKVSLQKEQARYNQLQEQRDTMVTKLHSQIRQLQHDREEFYNQSQELQTKLEDCRNMIAELRIELKKANNKVCHTELLLSQVSQKLSNSESVQQQMEFLNRQLLVLGEVNELYLEQLQNKHSDTTKEVEMMKAAYRKELEKNRSHVLQQTQRLDTSQKRILELESHLAKKDHLLLEQKKYLEDVKLQARGQLQAAESRYEAQKRITQVFELEILDLYGRLEKDGLLKKLEEEKAEAAEAAEERLDCCNDGCSDSMVGHNEEASGHNGETKTPRPSSARGSSGSRGGGGSSSSSSELSTPEKPPHQRAGPFSSRWETTMGEASASIPTTVGSLPSSKSFLGMKARELFRNKSESQCDEDGMTSSLSESLKTELGKDLGVEAKIPLNLDGPHPSPPTPDSVGQLHIMDYNETHHEHS
# chain 2: not shown
# Columns and labels:
# [1] = target: GST-Rheb wild type (recombinant, human Rheb)
# GST-Rheb wild type (recombinant, human Rheb), sequence (chain, as listed by the source): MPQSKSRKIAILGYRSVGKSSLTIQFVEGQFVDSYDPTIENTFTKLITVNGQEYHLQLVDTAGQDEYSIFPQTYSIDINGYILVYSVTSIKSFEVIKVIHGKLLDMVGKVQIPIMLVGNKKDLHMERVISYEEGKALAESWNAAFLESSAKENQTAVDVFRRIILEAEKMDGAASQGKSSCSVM
protein,measurement,setting,value
B1,GAP assay: hydrolysis of Rheb-bound [alpha-32P]GTP to GDP (thin-layer chromatography),GST-Rheb E40K,"TSC1/TSC2 were completely unable to promote hydrolysis of GTP bound to the S21L, T23M, Y35N, E40K and G63A mutants"
same,GAP assay: hydrolysis of Rheb-bound [alpha-32P]GTP to GDP (thin-layer chromatography),GST-Rheb G29S,partial resistance to them was seen for Rheb mutants G29S and Q64L
same,GAP assay: hydrolysis of Rheb-bound [alpha-32P]GTP to GDP (thin-layer chromatography),GST-Rheb G63A,"TSC1/TSC2 were completely unable to promote hydrolysis of GTP bound to the S21L, T23M, Y35N, E40K and G63A mutants"
same,GAP assay: hydrolysis of Rheb-bound [alpha-32P]GTP to GDP (thin-layer chromatography),GST-Rheb Q64L,partial resistance to them was seen for Rheb mutants G29S and Q64L
same,GAP assay: hydrolysis of Rheb-bound [alpha-32P]GTP to GDP (thin-layer chromatography),GST-Rheb S21L,"TSC1/TSC2 were completely unable to promote hydrolysis of GTP bound to the S21L, T23M, Y35N, E40K and G63A mutants"
same,GAP assay: hydrolysis of Rheb-bound [alpha-32P]GTP to GDP (thin-layer chromatography),GST-Rheb T23M,"TSC1/TSC2 were completely unable to promote hydrolysis of GTP bound to the S21L, T23M, Y35N, E40K and G63A mutants"
same,GAP assay: hydrolysis of Rheb-bound [alpha-32P]GTP to GDP (thin-layer chromatography),GST-Rheb Y35N,"TSC1/TSC2 were completely unable to promote hydrolysis of GTP bound to the S21L, T23M, Y35N, E40K and G63A mutants"
same,GAP assay: hydrolysis of Rheb-bound [alpha-32P]GTP to GDP (thin-layer chromatography),[1],Incubation with FLAG-TSC1 and FLAG-TSC2 led to hydrolysis of Rheb-GTP into Rheb-GDP
